The chains are these.
T1: kindlin-2 (KIND2) (UniProt Q8CIB5 1-680)
T1 construct: kindlin-2 (KIND2), recombinant; with the F1 loop and the PH domain (unlike ΔKIND2); source: E. coli Rosetta, purified (IMAC, SEC); not shown: His10-SUMO, N-terminal, cleaved
T1 sequence (looked up): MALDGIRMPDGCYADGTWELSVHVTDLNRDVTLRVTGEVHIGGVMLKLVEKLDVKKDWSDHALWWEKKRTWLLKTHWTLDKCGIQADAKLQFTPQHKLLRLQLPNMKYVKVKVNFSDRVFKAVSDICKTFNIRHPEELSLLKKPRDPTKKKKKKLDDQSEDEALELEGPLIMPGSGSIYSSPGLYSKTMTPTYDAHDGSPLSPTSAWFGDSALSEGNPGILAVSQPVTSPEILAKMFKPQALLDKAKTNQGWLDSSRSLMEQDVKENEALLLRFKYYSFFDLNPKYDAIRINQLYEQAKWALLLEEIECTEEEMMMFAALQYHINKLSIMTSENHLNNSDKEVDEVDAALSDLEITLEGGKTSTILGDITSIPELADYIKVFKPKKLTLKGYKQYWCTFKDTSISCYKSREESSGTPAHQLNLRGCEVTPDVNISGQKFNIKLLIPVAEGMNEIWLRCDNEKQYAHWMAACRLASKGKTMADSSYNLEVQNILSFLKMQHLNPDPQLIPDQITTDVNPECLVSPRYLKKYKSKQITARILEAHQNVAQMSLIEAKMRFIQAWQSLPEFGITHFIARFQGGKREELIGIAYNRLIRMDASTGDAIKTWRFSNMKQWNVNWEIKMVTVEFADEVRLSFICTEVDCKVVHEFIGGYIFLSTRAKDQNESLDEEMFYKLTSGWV

T2: biotinylated integrin β3 transmembrane and cytoplasmic tail polypeptide (β3-TM–CT) in nanodiscs (UniProt O54890 715-787, biotin (biotin-maleimide))
T2 construct: integrin β3 TM and CT, residues 715-787; embedded in MSP2N2 nanodiscs with 10% PIP2 or PIP3 and 90% DMPC; held on streptavidin beads; also called b3; source: E. coli BL21 (DE3) Rosetta 2, inclusion bodies, purified (IMAC, cation exchange)
T2 sequence (looked up): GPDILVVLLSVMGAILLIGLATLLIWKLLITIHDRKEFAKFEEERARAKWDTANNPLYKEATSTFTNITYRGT

B1: ATTO 488-labeled talin-binding-impaired β3-CT Y772A (peptide, UniProt O54890 741-787, looked up)
peptide: {ATTO 488}-KLLITIHDRKEFAKFEEERARAKWDTANNPLAKEATSTFTNITYRGT
notes: integrin β3 cytoplasmic tail (β3-CT), Y772A; source: synthetic peptide (MPIB Core Facility)
B2: talin-1 head domain (THD1) (domain or fragment, UniProt P26039 1-405, looked up)
chain: MVALSLKISIGNVVKTMQFEPSTMVYDACRMIRERIPEALAGPPNDFGLFLSDDDPKKGIWLEAGKALDYYMLRNGDTMEYRKKQRPLKIRMLDGTVKTIMVDDSKTVTDMLMTICARIGITNHDEYSLVRELMEEKKDEGTGTLRKDKTLLRDEKKMEKLKQKLHTDDELNWLDHGRTLREQGVEEHETLLLRRKFFYSDQNVDSRDPVQLNLLYVQARDDILNGSHPVSFDKACEFAGFQCQIQFGPHNEQKHKAGFLDLKDFLPKEYVKQKGERKIFQAHKNCGQMSEIEAKVRYVKLARSLKTYGVSFFLVKEKMKGKNKLVPRLLGITKECVMRVDEKTKEVIQEWSLTNIKRWAASPKSFTLDFGDYQDGYYSVQTTEGEQIAQLIAGYIDIILKKKKS
notes: talin-1 (TLN1) head domain (THD), residues 1-405; murine TLN1 cDNA is named only for the cell lines; also called WT; source: E. coli (DE3) Rosetta 2, purified (IMAC, SEC); not shown: His10-SUMO, N-terminal, cleaved
B3: ATTO 488-labeled integrin β1 cytoplasmic tail (488–β1-CT) (peptide, UniProt P09055-1 758-798, looked up)
peptide: {ATTO 488}-HDRREFAKFEKEKMNAKWDTGENPIYKSAVTTVVNPKYEGK
notes: integrin β1A cytoplasmic tail (β1-CT), residues 758-798; the limits 758-798 are stated for the recombinant β1-CT; also called β1A-CT; source: synthetic peptide (MPIB Core Facility)

Settings in all cases: both partners purified
For test [1], the target named is T1, kindlin-2 (KIND2). As to the kind of experiment: MST; apparent; KIND2 titrated to 488–β3-CT Y772A in the presence of 500 µM THD1; MST buffer.
Test [2] has as its target T1, kindlin-2 (KIND2). Nature of the test: MST; unlabelled protein titrated to 50-200 nM ATTO 488-labelled β-CT peptide, no third protein; 20 mM Tris pH 7.5, 200 mM NaCl, 1 mM TCEP, 0.05% Tween-20; Kd of individual titrations (in S0002 mean and sd, n = 2).
Test [3] concerns the target T3, biotinylated integrin β1 transmembrane and cytoplasmic tail polypeptide (β1-TM–CT) in nanodiscs (UniProt P09055 726-798, biotin (biotin-maleimide)).
T3 construct: integrin β1 TM and CT, residues 726-798; embedded in MSP2N2 nanodiscs with 10% PIP2 or PIP3 and 90% DMPC, on average one TM–CT per nanodisc; held on streptavidin beads; also called b1; source: E. coli BL21 (DE3) Rosetta 2, inclusion bodies, purified (IMAC, cation exchange)
Nature of the test: flow cytometry-based reporter-displacement assay (FC-RDA) on beads; biotinylated TM–CT in PIP2-containing nanodiscs on streptavidin beads; reporter 647–KIND2-Y13A, unlabelled competitor titrated; IC50 of individual experiments. (In general: Flow cytometry measures light scatter and fluorescence of single cells or particles in a stream.)

Test [4] has as its target T3, biotinylated integrin β1 transmembrane …. Nature of the test: flow cytometry-based reporter-displacement assay (FC-RDA) on beads; biotinylated TM–CT in 10% PIP2/90% DMPC nanodiscs on streptavidin beads; reporter 100 nM 565–THD1, unlabelled competitor titrated; 20 mM Tris pH 7.5, 200 mM NaCl, room temperature; IC50 of individual experiments; charged lipids contribute to the binding.

Test [5] has the same target. As to the kind of experiment: flow cytometry-based reporter-displacement assay (FC-RDA) on beads; biotinylated TM–CT in 10% PIP2/90% DMPC nanodiscs on streptavidin beads; reporter 50 nM 647–KIND2, unlabelled competitor titrated; 20 mM Tris pH 7.5, 200 mM NaCl, room temperature; IC50 of individual experiments; charged lipids contribute to the binding.
Test [6] concerns the target T2, biotinylated integrin β3 transmembrane …. As to the kind of experiment: flow cytometry-based reporter-displacement assay (FC-RDA) on beads; biotinylated TM–CT in 10% PIP3/90% DMPC nanodiscs on streptavidin beads; reporter 100 nM 565–THD1, unlabelled competitor titrated; 20 mM Tris pH 7.5, 200 mM NaCl, room temperature; IC50 of individual experiments; charged lipids contribute to the binding.

The target in test [7] is B2. As to the kind of experiment: MST; apparent; THD1 titrated to 488–β1-CT or THD2 to 488–β3-CT in the presence of 30 µM KIND2; MST buffer.
Test [8] has as its target B2. Nature of the test: MST; apparent; THD1 titrated to 488–β1-CT or 488–β3-CT in the presence of 500–1,100 µM KIND2-F0; MST buffer.
The target of test [9] is B2. Nature of the test: MST; apparent; THD1 titrated to 488–β1-CT or 488–β3-CT in the presence of 300–400 µM β-CT-binding-impaired KIND2 Q614A,W615A (QW/AA); MST buffer.
The target of test [10] is B2. Nature of the test: MST; unlabelled protein titrated to 50-200 nM ATTO 488-labelled β-CT peptide, no third protein; 20 mM Tris pH 7.5, 200 mM NaCl, 1 mM TCEP, 0.05% Tween-20; Kd of individual titrations (in S0002 mean and sd, n = 2).
Test [11] addresses B2. Described as above. The source holds these as a separate data set.

Where “and” joins values, the source holds several entries; their conditions need not be identical. Equal entries are not always repeated. No end group written: not given here.

As usually defined, the IC50 is the concentration that inhibits the measured activity by half. A lower IC50 goes with greater potency in that assay.

On to B1, for which the Kd with kindlin-2 (KIND2) [1] was 17.9 µM and 15.3 µM and 23.3 µM and 13.4 µM; in the test with kindlin-2 (KIND2) [2], 20.3 µM and 13.8 µM and 12.5 µM.
Take B2: the IC50 in test [3] is 0.321 µM and 0.39 µM and 0.506 µM and 0.206 µM; in test [4], 0.049 µM and 0.091 µM and 0.089 µM and 0.062 µM; in test [5], 0.249 µM and 0.192 µM and 0.087 µM; in test [6] it was 0.053 µM and 0.07 µM and 0.127 µM.
Turning to B3, the Kd in [7] is 159 µM and 173 µM and 127 µM; in test [8] it was 173 µM and 137 µM and 177 µM; in [9] it was 148 µM and 212 µM and 195 µM; in test [10], 128 µM and 152 µM and 141 µM; in [11], 152 µM.

For the origin of these results see paper PMC10716038, “Talin and kindlin use integrin tail allostery and direct binding to activate integrins” (Nature Structural & Molecular Biology, 2023).
